# Measurements published in the DeepSol protein solubility set.
# Assay: soluble on expression in E. coli; label from the status in PepcDB or PDB records
row,Sequence,soluble on expression in E. coli
1,MGSDKIHHHHHHMRDYSPYPLLVDVCVTNRCNLSCSYCSAEAGPFASKKGEMSVEKLDSIFRELNLMGVPRVGVTGGEPFIRDDILDILKAFDKYHFAKVLNTNGNLITDSVAKELSKLHLDRICVTVDGSCSKVHDSQRGKGSFKKAIEGIKNLQRYNLPVSTLFTLGRHNVDDLINTIRLNDMLRIKYMSVMIICPTGRANNGSILADKKHWYPVFLDLTERLSRGEFKVKFKIVPPNESDVFWTHYFPLAFYNRLDLLESVWHQSLNFNSNKKREISCQAGVRACSINHKGDVYGCDLMNGIDELVAGNVKEKSFYEIWHNSSIFHKLRNITFDDISGKCAGCPLPWCGGGCRCSALELDGTLLGSDLACFYDEEESVLV,not soluble
2,MGHHHHHHSHMQQAPVVLSTLDKLLNWGRSNSLWPLTYGLACCAIEMMATGGSRFDFDRFGTIFRASPRQSDVMIIAGTLTKKHAEFMRRLYDQMPEPKWVISMGSCANTGGMFNTYATVQGADRVVPVDIYLPGCAPRPETLQYALMVLQDKIRRSKAIKQDAPKRLV,not soluble
3,MTNTGETKVIESHGTIKKIDSLSTMPYCGVETDENAVVEEKITLESGKSWSPKHYELLHERIERLIDEKQQFFSLEFFPPRFVNGVPNFLERVERLSEGGSVFVDMTWHMGSDPANVDKVTSSSSIAASMLDYCGVDTMLHMTCVQYNKADTLKHLEQAKAMGLRSILALRGDLPPGTELEDTHQFRALDMIRWIREEYGNYFSIGCAGYPLGHPQAPSYKADLMYLKAKCDAGANFVITQLFFEAETFEKFVRDCREIGITQPIIPGIMPIMGYESIKRIAKLSQLEIPQHILDDLEPIKHDDDAVQKYGTERCIEMCRRLLDNGTAPSIHLYTMNREGSIREILKSLGLWKLEGDRVFPWKNRSQHPIRCLESVRPIYWSFRPRSYITRTRDWDQFPNGRWGNSSSPAFGDVSSYYLSNLTTVRNADDRLAMFGANIESFEDVKRVFINYITQAPNADGVKVTVLPWTEAETGVQPETSLISEQLVWCNENGILTVNSQPSVNGAPSTDPLVGWGKPGGYCYQKAYLECFMTAELSDKLIQIIEREFPVRVNYHAINKDSTFDKTNSEETTPIAVTWGVFPGSEIAQPTVVDPLSFRAWRDEAYQMWMAQWGDFYPKESKSYGVIKAVHDEFRLVTLVDNDFQKPSVLFDVLQKALDELKK,not soluble
4,MGSDKIHHHHHHMRGPLRGKVSFPWGLRPLPMLVYHEFGRSMTRPVIGIIGNHHLINDQYATHAGGIMNSEAVAEVSGGLPLIVPSNPAFVDLDDLMATCAGFVFTGGRPNVHPEEYGEDYTDAHGTMDRDRDALTLPLIRACVERGQPILGLCRGFQEVNVAMGGSLYPEIRDLPGRMNHRMPPDGTIEEKFELRHTVTFTEGGPFHRLMGAQQVRTNTLHGQGIKQAGARVIIDGHAEDGTPEAIYIADAPGFTLSVQWHPEYRAAEDPVSRPLFAAFGEAARAWSIGKRPVKAGEVA,not soluble
5,MRCKGFLFDLDGTLVDSLPAVERAWSNWARRHGLAPEEVLAFIHGKQAITSLRHFMAGKSEADIAAEFTRLEQIEATETEGITALPGAIALLNHLNKAGIPWAIVTSGSMPVARARHKIAGLPAPEVFVTAERVKRGKPEPDAYLLGAQLLGLAPQECVVVEDAPAGVLSGLAAGCHVIAVNAPADTPRLNEVDLVLHSLEQITVTKQPNGDVIIQ,not soluble
6,MHHHHHHSSGVDLGTENLYFQSNAMTAPSQVLKIRRPDDWHVHLRDGDMLKTVVPYTSEIYGRAIVMPNLASPITTVDAAIAYRQRILDAVPAGHDFTPLMTCYLTDSLDADELERGFHEGVFTAAKLYPANATTNSSHGVTSVDAIMPVLERMEKLGIPLLVHGEVTHADVDIFDREARFIDTVMEPLRQRLTALKVVFEHITTKDAAQYVRDGNDYLAATITPQHLMFNRNDMLVGGIRPHLYCLPILKRNIHQQALRELVASGFTRAFLGTDSAPHSRHRKETSCGCAGCFNAPSALGSYAAVFEEMNALAHFEAFCSLNGPQFYGLPMNTGWVELVRDEQQIPGNIALADDSLVPFLAGETVRWSVKK,soluble
7,AEAKSKLTVALGKDIAGTPVVGDLAKMPHLLVAGMTGSGKSVGVNGMIMSMLFKATPDEVRFIMIDPKMLELSIYDGIPHLLCPVVTDMREAGQALNWCVAEMEKRYRLLSHAGVRNLEGFNQKVEAAKAAGKPLLNPFSLNPDEPEPLEKLPLIVVVIDELADLMMTERKAVEQQIARLAQKARAAGIHMIVATQRP,not soluble
8,MVTFLGNPVSFTGKQLQVGDKALDFSLTTTDLSKKSLADFDGKKKVLSVVPSIDTGICSTQTRRFNEELAGLDNTVVLTVSMDLPFAQKRWCGAEGLDNAIMLSDYFDHSFGRDYALLINEWHLLARAVFVLDTDNTIRYVEYVDNINSEPNFEAAIAAAKAL,soluble
9,MSLANAFGKEKNIKEFYALKGVSFEISKGECVGIIGHNGAGKSTLLKLLTGVAFPTSGEIEINGRLASMLELGSGFNPELTGMENIYFNGSLNGLTKEEIDGKLKDILEFADIGNFIEQPVKNYSSGMFARLAFAVAINVDPDILIVDEILSVGDVGFQVKCMEKFNEFKKKGKTILYVSHGLGTVKKFCDRAIWLQKGEVVDDGNSVIVVERYYNLNFNPANIEQLKDHKSDIINSIAVKSNTKNVEYLEKLDLEVEYDLISNDLKDPNIVLEFRKTDYEPGTTRGNDQFVCGINSKDNIKNIPFNLGVNKLKVSLNKVNLVAGVYYIDFVLRDGEEEVYRKINGYSFTLNDKYRGEGFLILGHSWGNEGHHHHHH,not soluble
10,MGSDKIHHHHHHMSMNHIRPWRNIERRKSRQIHVGNVPVGGDAPIAVQTMTNTLTTDIKGTIAQVQAAADAGADIVRVSVPDEASARALKEIVRESPVPIVADIHFHYKRGIEAAEAGAACLRINPGNIGDEKRVAEVIKAARDHNCSIRIGVNAGSLEKHLLEKYGEPCPDAMVESGLDHIKILQDHDFHEFKISVKASDVFMSAAAYQMLADATDAPIHLGITEAGGLMSGTIKSAIGLGQLLWMGIGDTLRVSLSADPVEEVKVGFEILKSLGLRHRGVNIISCPSCARQGFDVIKTVETLEERLEHIKTPMSLSIIGCVVNGPGEALMTDVGFTGGGAGSGMVYLAGKASHKMSNDQMIDHIVEEVEKKAAALDAQAAEDMKAAE,not soluble
11,MSLANRKYFGTDGVRGKVGAYPITPDFALKLGWAAGKVLASQGSKMVLIGKDTRISGYMLESALEAGLAAAGLSAAFTGPMPTPAIAYLTRTFRAEAGIVISASHNPYYDNGIKFFSAKGTKLPDEIEEAIEAMLEQPMDCVESAELGKASRINDAAGRYIEFCKGTFPAHLGLEGYKIVVDCANGATYHIAPNVLRELGAEVIEIGTDPNGLNINEKCGATDVTALQAKVVETKADVGLAYDGDGDRIMMVDHLGNKVDGDQILFIIAREALRSGQLKGGVVGTLMSNMSLEIALKMLGVPFLRANVGDRYVLEKMVENDWTLGGENSGHIIIADKNTTGDGIVASLAVLAAMAQHKLSLNELASAVKLFPQVLINVRFAGGENPLESDAVKSVAAEVEKRLEGKGRILLRKSGTEPLIRVMVECQDAELAQQCAEEIAEAVKKEGHHHHHH,soluble
12,MVATEKKFVLTHIFKNVSKMKDSDFLYSPEENLFNVPWFMLIARKDDHFGVFLHCQKINEAGPTWSVDTQNTIRVKTLSASKVSSEIFKHKFEKNEGWGYFKFISWDTLTNDYLIDDCIIVEITVKITKMTGIPKKVLRSFDKSAEEFSDVVLEVGGKKFYVLKKFLASHSTYFNALLLGKPEMSEVTIQDTSSVDFQNLLEVLYGEPAIDEDTIDGILTLAHKFTMPLPIQKCEEFLIEKSEKSVKEKLKLVKKYQLKSLKTHCLSKINTPYGINALMPFDHNDMDPEVVMALLKKSLATDEFYLDCIMRFTVICLIFITVGLII,not soluble
13,MAHAGRTGYDNREIVMKYIHYKLSQRGYEWDAGDDVEENRTEAPEGTESEVVHLTLRQAGDDFSRRYRRDFAEMSSQLHLTPFTARGRFATVVEELFRDGVNWGRIVAFFEFGGVMCVESVNREMSPLVDNIALWMTEYLNRHLHTWIQDNGGWDAFVELYGPSMR,soluble
14,MATFSISAMAAQCGVTTANIRSWERYGLLQPTKDEAGNRFYCIEDAIRIQHIIDALSKGFSLKEIKPALYGEETHCRSGWLFYQEEILAQCRKFEPAKLRKLLWRYGREIPPCIVIESILRPLRLWLSAGDDDARRFEKALLDTAIIEYATFQLSSVRKAPAGTMLIAAFSLNDPIELWLETIKYCSEGMRVEVIPWQAPMPDLLSTSFEHIVLWHDETLTPAQENLIQALKESGKFSLHVKNGSGLTLLPAVYRQHEMPESMQHVAPQIHANGYEKSGTAR,not soluble
15,LLQTMLSMTSHGPAQVFTERYQLIVQPLGLSQQVEKDSLDLLADYLHGFALSISCCHDASLIKTDMLDGPLKLICSSLLASRT,not soluble
16,MKIVLAYSGGLDTSIILKWLKETYRAEVIAFTADIGQGEEVEEAREKALRTGASKAIALDLKEEFVRDFVFPMMRAGAVYEGYYLLGTSIARPLIAKHLVRIAEEEGAEAIAHGATGKGNDQVRFELTAYALKPDIKVIAPWREWSFQGRKEMIAYAEAHGIPVPVTQEKPYSMDANLLHISYEGGVLEDPWAEPPKGMFRMTQDPEEAPDAPEYVEVEFFEGDPVAVNGERLSPAALLQRLNEIGGRHGVGRVDIVENRFVGMKSRGVYETPGGTILYHARRAVESLTLDREVLHQRDMLSPKYAELVYYGFWYAPEREALQAYFDHVARSVTGVARLKLYKGNVYVVGRKAPKSLYRQDLVSFDEAGGYDQKDAEGFIKIQALRLRVRALVEREGHGA,soluble
17,MPGHELEDVINQRLNLYDVLELPTPLDVHTIYDDLPQIKRKYRTLALKYHPDKHPDNPSIIHKFHLLSTATNILTNADVRPHYDRWLIEFLRKTNDIERNKLIQKLEESESSTIPTTTPHPDLLQIQRHGELLRKLKHFNLPYGDWKHLNTQDQENASQHPYYDCSTLRIVLDNFLQSNNKSNCLSHLRNQVFITLSANEIYDIYFSERNNYSKDDSIIIYTVFDTPITAQHVFRNWSSGNLIPTVKDISPLIPLHYYSDFNLETELNDDIARLVSNEPILLD,not soluble
18,MGSSHHHHHHGGTGENLYFQGGSGKIFSTLGNPGTLAATKPKKGEVVLASPEATVSKYKEAIKQHKKALKELHACTERFTHALAAVAASLQLLTSDTHIPVMVQSSGALASGIEEVQDGVLLQDLMEELDYSLSTRFKQIAEDQRELKESRERKSKAERTLMLLRSQCDKLQLKKDVDAKVQALYLAKTQKRDEHEVECTRLKAEFEDTFQDFTKRFGILVYEDMKGLTVHLHRVLSALSYQVRKCKDNIMAHPITPKPIAEMS,not soluble
19,MGSDKIHHHHHHMHHDLVDVLIIEDESELARLHAELVQKHPRLRLAGMAASLAQARQLLHATPPQLVLLDNYLPDGKGVTLMTDPALATSQCSVIFITAASDMETCSQAIRNGAFDYILKPVSWKRLSQSLERFIQFYDQQREWKIVDQQNVDSLYQLQAKNYRVDSGSKGIEEKTLALVQGLFSDREAHCFSVDEVVSAAGLSKTTARRYLEHGVETGFLEVEMLYGKIGHPRRLYRRAKVKS,not soluble
20,MGHHHHHHHHHHSSGHIDDDDKHMRGREEKAPEEPQPVKMPENNSVVEATWNDVQLEDSLGMEVGYRLIPMVDFQQDGELLGRIRSIRKKFAQDMGFLPPVVHIRDNMDLQPARYRILMKGVEIGSGDAYPGRWLAINPGTAAGTLPGEKTVDPAFGLDAIWIESALKEQAQIQGFTVVEASTVVATHLNHLIGQFSAELFGRQEAQQLLDRVSQEMPKLTEDLVPGVVTLTTLHKVLQNLLAEKVPIRDMRTILETLAEHAPLQSDPHELTAVVRVALGRAITQQWFPGNEEVQVIGLDTALERLLLQALQGGGGLEPGLADRLLAQTQEALSRQEMLGAPPVLLVNHALRPLLSRFLRRSLPQLVVLSNLELSDNRHIRMTATIGGK,soluble
